Values of other authors in publication PMC6109845.

Molecular target: HIF-1α 19-mer peptide (Homo sapiens) (UniProt Q16665)

Sequence of von Hippel-Lindau E3 ubiquitin ligase (VHL) (P40337 whole entry): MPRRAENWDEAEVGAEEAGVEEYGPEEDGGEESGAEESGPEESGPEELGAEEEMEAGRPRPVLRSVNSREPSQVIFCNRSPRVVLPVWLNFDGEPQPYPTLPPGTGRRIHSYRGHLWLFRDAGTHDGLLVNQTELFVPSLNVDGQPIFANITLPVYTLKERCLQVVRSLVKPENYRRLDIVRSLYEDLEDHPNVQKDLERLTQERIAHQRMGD

von Hippel-Lindau E3 ubiquitin ligase (VHL) (from UniProt P40337)
Kd: 3 nM
